Data set [1] concerns the molecule itself. Nature of the data set: cell-based or functional assay.
Data set [2] concerns the molecule itself. The experiment in a line: SEC-MALS; nucleotide-free protein; 10 µl of 8 mg ml^-1 injected on a Bio SEC-3 column; buffer as for SEC-SAXS. (SEC sorts molecules by how far they enter the pores of the column.)
Data set [3] deals with the molecule itself. The experiment in a line: native MS; GppNHp: pre-incubated with 500 µM, 100 µM in 150 mM ammonium acetate pH 7.5; protein 12.5-16 µM.
Data set [4] deals with the molecule itself. The experiment in a line: SEC-SAXS; nucleotide-free protein; 50 µl of 8 mg ml^-1 injected on a Bio SEC-3 column; 20 mM Hepes pH 7.5, 150 mM NaCl, 5 mM MgCl2, 5% glycerol, 1 mM DTT; mass from Porod volume.

B1: CtRoc-COR L487A mutant (domain or fragment, Chlorobium tepidum, UniProt Q8KC98 412-946, looked up)
chain: DNPLESPPPEIVKQGKEAVRQYFQSIEEARSKGEALVHLQEIKVHLIGDGMAGKTSLLKQLIGETFDPKESQTHGANVVTKQAPNIKGLENDDELKECLFHFWDFGGQEIMHASHQFFMTRSSVYMLLLDSRTDSNKHYWLRHIEKYGGKSPVIVVMNKIDENPSYNIEQKKINERFPAIENRFHRISCKNGDGVESIAKSLKSAVLHPDSIYGTPLAPSWIKVKEKLVEATTAQRYLNRTEVEKICNDSGITDPGERKTLLGYLNNLGIVLYFEALDLSEIYVLDPHWVTIGVYRIINSSKTKNGHLNTSALGYILNEEQIRCDEYDPAKNNKFTYTLLEQRYLLDIMKQFELCYDEGKGLFIIPSNLPTQIDNEPEITEGEPLRFIMKYDYLPSTIIPRLMIAMQHQILDRMQWRYGMVLKSQDHEGALAKVVAETKDSTITIAIQGEPRCKREYLSIIWYEIKKINANFTNLDVKEFIPLPGHPDELVEYKELLGLEKMGRDEYVSGKLEKVFSVSKMLDSVISKEERNKER
notes: Roco protein from Chlorobium tepidum, Roc-COR module a.a; 412-946, with L487A (analogue of LRRK2 I1371V); also called L487A CtRoc-COR
Consider B1, for which the “single-turnover GTP hydrolysis rate constant (1 µM protein, 1 µM GTP, GDP formation by reversed-phase HPLC), L487A against wild-type CtRoc-COR” value in data set [1] was 4 fold decrease. The “stoichiometry N” value in data set [2] worked out at 2.

B2: Roc-COR domain construct of the Chlorobium tepidum Roco protein (CtRoc-COR) (domain or fragment, UniProt Q8KC98 412-946, looked up)
chain: DNPLESPPPEIVKQGKEAVRQYFQSIEEARSKGEALVHLQEIKVHLIGDGMAGKTSLLKQLIGETFDPKESQTHGLNVVTKQAPNIKGLENDDELKECLFHFWDFGGQEIMHASHQFFMTRSSVYMLLLDSRTDSNKHYWLRHIEKYGGKSPVIVVMNKIDENPSYNIEQKKINERFPAIENRFHRISCKNGDGVESIAKSLKSAVLHPDSIYGTPLAPSWIKVKEKLVEATTAQRYLNRTEVEKICNDSGITDPGERKTLLGYLNNLGIVLYFEALDLSEIYVLDPHWVTIGVYRIINSSKTKNGHLNTSALGYILNEEQIRCDEYDPAKNNKFTYTLLEQRYLLDIMKQFELCYDEGKGLFIIPSNLPTQIDNEPEITEGEPLRFIMKYDYLPSTIIPRLMIAMQHQILDRMQWRYGMVLKSQDHEGALAKVVAETKDSTITIAIQGEPRCKREYLSIIWYEIKKINANFTNLDVKEFIPLPGHPDELVEYKELLGLEKMGRDEYVSGKLEKVFSVSKMLDSVISKEERNKER
notes: Roco protein from Chlorobium tepidum (CtRoco), central Roc-COR module, a.a; 412-946; The monomer chain is written; also called CtRoc-COR wt; Roc-COR module; source: E. coli BL21 (DE3), purified (Ni-NTA IMAC, EDTA treatment, Superdex S200 SEC)
Regarding B2, in data set [3], the monomer/dimer ratio was approximately 1 monomer/dimer. For the same protein, in data set [4], the “stoichiometry N” value worked out at 2.

B3: CtRoco L487A mutant, full length (natural protein, Chlorobium tepidum, UniProt Q8KC98 1-1102, looked up)
chain: MSDLDVIRQIEQELGMQLEPVDKLKWYSKGYKLDKDQRVTAIGLYDCGSDTLDRIIQPLESLKSLSELSLSSNQITDISPLASLNSLSMLWLDRNQITDIAPLASLNSLSMLWLFGNKISDIAPLESLKSLTELQLSSNQITDIAPLASLKSLTELSLSGNNISDIAPLESLKSLTELSLSSNQITDIAPLASLKSLTELSLSSNQISDIAPLESLKSLTELQLSRNQISDIAPLESLKSLTELQLSSNQITDIAPLASLKSLTELQLSRNQISDIAPLESLNSLSKLWLNGNQITDIAPLASLNSLTELELSSNQITDIAPLASLKSLSTLWLSSNQISDIAPLASLESLSELSLSSNQISDISPLASLNSLTGFDVRRNPIKRLPETITGFDMEILWNDFSSSGFITFFDNPLESPPPEIVKQGKEAVRQYFQSIEEARSKGEALVHLQEIKVHLIGDGMAGKTSLLKQLIGETFDPKESQTHGANVVTKQAPNIKGLENDDELKECLFHFWDFGGQEIMHASHQFFMTRSSVYMLLLDSRTDSNKHYWLRHIEKYGGKSPVIVVMNKIDENPSYNIEQKKINERFPAIENRFHRISCKNGDGVESIAKSLKSAVLHPDSIYGTPLAPSWIKVKEKLVEATTAQRYLNRTEVEKICNDSGITDPGERKTLLGYLNNLGIVLYFEALDLSEIYVLDPHWVTIGVYRIINSSKTKNGHLNTSALGYILNEEQIRCDEYDPAKNNKFTYTLLEQRYLLDIMKQFELCYDEGKGLFIIPSNLPTQIDNEPEITEGEPLRFIMKYDYLPSTIIPRLMIAMQHQILDRMQWRYGMVLKSQDHEGALAKVVAETKDSTITIAIQGEPRCKREYLSIIWYEIKKINANFTNLDVKEFIPLPGHPDELVEYKELLGLEKMGRDEYVSGKLEKVFSVSKMLDSVISKEERNKERLMGDINIKLENIGNPTIPIHQQVEVNVSQETVQHVENLQGFFENLKADILREAELEIDDPKERKRLANELELAENAITKMDAAVKSGKNKLKPDVKDRLGEFIDNLANENSRLRKGIALVMNGAEKVQKLARYYNNVAPFFDLPSVPPVLLGKEKT
notes: Roco protein from Chlorobium tepidum (CtRoco), a.a; 1-1102, with L487A (analogue of LRRK2 I1371V); also called L487A CtRoco
On to B3, for which the “stoichiometry N” value in data set [2] is 2.

A word on the stoichiometry N: it is the number of molecules, sites or subunits per partner or assembly.

These data come from PMC5714945, “A homologue of the Parkinson’s disease-associated protein LRRK2 undergoes a monomer-dimer transition during GTP turnover” (Nature Communications, 2017).
